Molecular target: T1, integrin αV/β3 (Homo sapiens, UniProt P05106+P06756)
T1 construct: expressed in transfected cells; host or cells: HEK293T
Test: FAK phosphorylation in HEK293T cells with forced expression of integrin αV/β3
Format: cell-based
Conditions: HEK293T, forced expression of integrin αV/β3, irisin 5 minutes
Procedure: 100 nM irisin was incubated with 5 nM indicated his-tag integrins followed by immunoprecipitation using Ni-NTA agaroses. Precipitated integrins and co-precipitated irisin were analyzed by immunoblot analysis. […] HEK293T cells were seeded and incubated until 50% cell density. The cells were transfected with 0.1 μg plasmids of indicated integrins. After 48 hours, the cells were incubated with Freestyle293 medium for 3 hours and were treated with indicated concentration of irisin for 5 minutes. Cells were lysed to detect the indicated protein level using immunoblot analysis. […] MLO-Y4 cells were treated as described in FIG. 2D with addition of pretreatment of indicated antagonistic antibodies for 10 minutes. Cells were lysed to detect the indicated protein level using immunoblot analysis. […] Sclerostin mRNA level was analyzed by qRT-PCR. […]
100 nM irisin was incubated with 5 nM indicated his-tag integrins followed by immunoprecipitation using Ni-NTA agaroses. Precipitated integrins and co-precipitated irisin were analyzed by immunoblot analysis. […] Cells were treated and analyzed as FIG. 14B except using plasmids encoding integrin α5/β1 or integrin α11/β1 (FIG. 15C) integrin αV/β1(FIG. 15D). […]
Cells were harvested in RIPA buffer containing protease-inhibitor cocktail and phosphataseinhibitor cocktail. […] Protein levels were analyzed via western blot using indicated antibody. […]

T1 sequence (P06756 31-889 limits assumed): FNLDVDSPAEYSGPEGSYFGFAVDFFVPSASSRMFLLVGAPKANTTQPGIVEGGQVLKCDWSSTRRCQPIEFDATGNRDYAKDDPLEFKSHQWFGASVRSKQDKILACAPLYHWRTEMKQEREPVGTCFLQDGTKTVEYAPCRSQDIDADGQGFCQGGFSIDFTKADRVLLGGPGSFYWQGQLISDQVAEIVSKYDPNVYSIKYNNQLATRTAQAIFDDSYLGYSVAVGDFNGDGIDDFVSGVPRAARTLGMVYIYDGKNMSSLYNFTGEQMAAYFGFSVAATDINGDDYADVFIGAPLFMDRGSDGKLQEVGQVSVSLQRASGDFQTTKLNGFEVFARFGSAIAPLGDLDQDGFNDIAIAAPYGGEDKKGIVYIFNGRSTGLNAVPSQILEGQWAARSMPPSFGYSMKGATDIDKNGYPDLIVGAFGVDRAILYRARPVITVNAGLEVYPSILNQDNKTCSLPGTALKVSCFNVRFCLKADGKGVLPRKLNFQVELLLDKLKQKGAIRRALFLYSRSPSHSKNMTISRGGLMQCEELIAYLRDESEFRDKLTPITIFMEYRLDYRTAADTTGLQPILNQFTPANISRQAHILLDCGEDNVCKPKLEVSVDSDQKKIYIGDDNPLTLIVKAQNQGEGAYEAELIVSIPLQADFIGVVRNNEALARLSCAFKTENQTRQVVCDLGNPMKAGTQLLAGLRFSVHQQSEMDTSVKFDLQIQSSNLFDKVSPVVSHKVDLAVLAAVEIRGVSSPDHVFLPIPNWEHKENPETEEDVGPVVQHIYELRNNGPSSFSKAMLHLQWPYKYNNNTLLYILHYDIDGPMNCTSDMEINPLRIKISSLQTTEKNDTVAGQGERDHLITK
T1 sequence (P06756 891-1048 partner limits assumed): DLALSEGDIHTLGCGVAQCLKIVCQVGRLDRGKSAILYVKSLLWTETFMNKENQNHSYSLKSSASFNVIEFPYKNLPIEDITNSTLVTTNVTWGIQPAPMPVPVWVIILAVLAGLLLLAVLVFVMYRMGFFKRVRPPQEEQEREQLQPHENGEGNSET
T1 sequence (P05106 27-788): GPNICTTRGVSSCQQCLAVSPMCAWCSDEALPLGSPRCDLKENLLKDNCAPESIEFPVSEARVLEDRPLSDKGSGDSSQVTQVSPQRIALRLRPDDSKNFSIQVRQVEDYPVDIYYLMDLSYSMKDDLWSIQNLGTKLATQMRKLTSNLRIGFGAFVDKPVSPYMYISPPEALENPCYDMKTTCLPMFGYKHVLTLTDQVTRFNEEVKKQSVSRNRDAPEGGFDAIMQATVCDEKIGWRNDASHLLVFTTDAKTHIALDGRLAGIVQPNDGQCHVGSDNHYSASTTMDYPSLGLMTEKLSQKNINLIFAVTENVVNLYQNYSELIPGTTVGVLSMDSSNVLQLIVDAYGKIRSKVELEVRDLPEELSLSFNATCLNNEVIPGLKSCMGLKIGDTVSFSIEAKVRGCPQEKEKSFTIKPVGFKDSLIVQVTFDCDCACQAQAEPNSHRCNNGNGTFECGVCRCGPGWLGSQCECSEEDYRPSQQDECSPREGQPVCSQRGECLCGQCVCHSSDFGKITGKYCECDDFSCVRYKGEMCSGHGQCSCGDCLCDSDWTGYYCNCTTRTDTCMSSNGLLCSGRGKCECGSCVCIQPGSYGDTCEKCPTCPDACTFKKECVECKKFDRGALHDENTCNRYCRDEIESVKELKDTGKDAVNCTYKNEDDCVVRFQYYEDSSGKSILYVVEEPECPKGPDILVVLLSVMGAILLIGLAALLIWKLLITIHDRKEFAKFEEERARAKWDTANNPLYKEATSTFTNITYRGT

B1: irisin: secreted cleaved form of FNDC5; recombinant human/mouse irisin with C-terminal his tag produced in HEK293 cells (protein)
chain: DSPSAPVNVTVRHLKANSAVVSWDVLEDEVVIGFAISQQKKDVRMLRFIQEVNTTTRSCALWDLEEDTEYIVHVQAISIQGQSPASEPVLFKTPREAEKMASKNKDEVTMKE
modifications: left off: small tags and cut ends
notes: secreted cleaved form of FNDC5; recombinant human/mouse irisin with C-terminal his tag produced in HEK293 cells
- phosphorylation of FAK upon irisin treatment: not
